T1: human FcγRIIb (human, UniProt P31994 43-217, limits assumed)
T1 construct: Soluble analyte in SPR; also called FcgRIIb; FcγIIB
T1 sequence: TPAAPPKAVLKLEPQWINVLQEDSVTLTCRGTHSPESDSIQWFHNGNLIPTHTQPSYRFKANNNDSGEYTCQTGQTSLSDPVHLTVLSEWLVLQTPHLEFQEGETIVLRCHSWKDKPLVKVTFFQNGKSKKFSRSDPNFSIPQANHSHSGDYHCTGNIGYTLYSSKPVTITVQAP

T2: human FcγRIIa(H) (allotype H131) (human, UniProt P12318 36-217)
T2 construct: Soluble analyte in SPR; also called hFcgRIIa(H); FcgRIIaH
T2 sequence: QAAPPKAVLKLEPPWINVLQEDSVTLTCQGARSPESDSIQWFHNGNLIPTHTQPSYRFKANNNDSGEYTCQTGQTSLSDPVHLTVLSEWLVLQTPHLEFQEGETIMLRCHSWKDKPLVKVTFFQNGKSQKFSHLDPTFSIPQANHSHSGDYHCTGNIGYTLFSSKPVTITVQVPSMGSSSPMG

T3: human FcγRIIb (human, UniProt P31994 43-217, limits assumed)
T3 construct: Soluble analyte in SPR; also called hFcgRIIb; FcgRIIb
T3 sequence: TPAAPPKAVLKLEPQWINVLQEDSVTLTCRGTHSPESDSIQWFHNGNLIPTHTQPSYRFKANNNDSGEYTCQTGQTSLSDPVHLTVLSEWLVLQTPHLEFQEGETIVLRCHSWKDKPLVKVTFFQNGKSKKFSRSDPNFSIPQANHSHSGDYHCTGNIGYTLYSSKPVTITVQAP

T4: human FcγRIIa(R) (allotype R131) (human, UniProt P12318 36-217)
T4 construct: Soluble analyte in SPR; also called hFcgRIIa(R); FcgRIIaR
T4 chain: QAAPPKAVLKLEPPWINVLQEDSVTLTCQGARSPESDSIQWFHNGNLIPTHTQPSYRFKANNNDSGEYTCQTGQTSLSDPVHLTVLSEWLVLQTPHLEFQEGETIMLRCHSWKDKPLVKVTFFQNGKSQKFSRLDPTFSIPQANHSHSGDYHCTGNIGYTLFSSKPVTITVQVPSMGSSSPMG

T5: human FcγRIIa type R (human, UniProt P12318 36-217)
T5 construct: also called FcγRIIaR; FcγRIIa(R)
T5 chain: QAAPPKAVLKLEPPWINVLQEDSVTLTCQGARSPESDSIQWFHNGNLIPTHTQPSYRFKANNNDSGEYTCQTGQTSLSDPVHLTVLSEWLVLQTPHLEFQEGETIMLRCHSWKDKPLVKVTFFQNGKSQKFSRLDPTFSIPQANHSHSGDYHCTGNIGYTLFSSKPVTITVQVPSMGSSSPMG

T6: human FcγRIIb (human, UniProt P31994 43-217, limits assumed)
T6 construct: Whole entry (AAI46679.1); also called FcγIIB; FcgRIIb
T6 sequence: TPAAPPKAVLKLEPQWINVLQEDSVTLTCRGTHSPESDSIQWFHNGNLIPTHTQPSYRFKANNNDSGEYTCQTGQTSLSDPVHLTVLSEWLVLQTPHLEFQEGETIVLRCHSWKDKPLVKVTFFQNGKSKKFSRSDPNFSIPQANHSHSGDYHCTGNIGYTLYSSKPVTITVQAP


What was measured:
[1] = target: T1, human FcγRIIb; assay: SPR, captured antibody, FcγR as analyte
Experimental: Interaction between each modified antibody and Fcγ receptor prepared in the manner described above was analyzed using the BIACORE™ T100 surface plasmon resonance system (GE Healthcare), BIACORE™ T200 surface plasmon resonance system (GE Healthcare), BIACORE™ A100 surface plasmon resonance system or BIACORE™ 4000 surface plasmon resonance system. HBS-EP+(GE Healthcare) was used for the running buffer, and measurements were carried out at 25° C. The chips used were chips in which antigen peptides, Protein A (Thermo Scientific), Protein A/G (Thermo Scientific) or Protein L (ACTIGEN® protein (Alltech or BioVision) were immobilized on the Series S Sensor Chip CM5 (GE Healthcare) or Series S Sensor Chip CM4 (GE Healthcare) by amine coupling, or chips in which preliminarily biotinylated antigen peptides were allowed to interact and then immobilized on the Series S Sensor Chip SA (certified) (GE Healthcare). The target antibodies were captured on these sensor chips, Fcγ receptor diluted with the running buffer was allowed to interact, followed by measurement of the amount of bound antibody. The amounts bound were compared between antibodies. However, since the amount of Fcγ receptor bound depends on the amount of captured antibody, the values used for comparison were first corrected by dividing the amount of Fcγ receptor bound by the captured amount of each antibody. Through reaction with 10 mM glycine-HCl at pH 1.5, the sensor chips were regenerated by washing off antibody captured on the sensor chips and used repeatedly.
Binding strength was evaluated according to the following method based on the results of analyzing the interaction with each FcγR. […] That value was then further multiplied by 100, and the resulting value was used as an indicator of relative binding activity to each FcγR.

[2] = target: T7, human FcγRIa (human, UniProt P12314 16-292, limits assumed); assay: SPR (Biacore T100), ratio of the KD values of Table 24
T7 construct: Soluble analyte in SPR; also called hFcgRIa; FcgRIa
Experimental: (§1) Next, interaction between these antibodies and FcγR was analyzed kinetically using the BIACORE™ T100 (GE Healthcare). The interaction was measured at a temperature of 25° C. using HBS-EP+ (GE Healthcare) for the running buffer. The Series S Sensor Chip CM5 (GE Healthcare) was used after immobilizing Protein A by amine coupling. […] Antibody captured on the chip was washed by allowing 10 mM glycine-HCl (pH 1.5) to react following measurement. The chip regenerated in this manner was used repeatedly. The dissociation constant KD (mol/L) was calculated from the association rate constant ka (L/mol/s) and dissociation rate constant kd (1/s) as calculated by global-fitting the measurement results with a 1:1 Langmuir binding model using the BIACORE™ Evaluation Software.

[3] = target: T2, human FcγRIIa(H) (allotype H131); assay: as above
Experimental: as §1

[4] = target: T3, human FcγRIIb; assay: as above
Experimental: as §1

[5] = target: T4, human FcγRIIa(R) (allotype R131); assay: as above
Experimental: as §1

[6] = target: T5, human FcγRIIa type R; assay: SPR (Biacore), antibody captured on Protein A chip, FcγR as analyte, 25 C, method of Example 14
Experimental: as §1
(§2) Furthermore, KD(IIaR)/KD(IIb) and KD(IIaH)/KD(IIb) in the table respectively represent the value obtained by dividing the KD value of each variant for FcγRIIaR by the KD value of each variant for FcγRIIb, and the value obtained by dividing the KD value of each variant for FcγRIIaH by the KD value of each variant for FcγRIIb.

[7] = target: T6, human FcγRIIb; assay: as above
Experimental: as §1, §2

T7 sequence (P12314 16-292 limits assumed): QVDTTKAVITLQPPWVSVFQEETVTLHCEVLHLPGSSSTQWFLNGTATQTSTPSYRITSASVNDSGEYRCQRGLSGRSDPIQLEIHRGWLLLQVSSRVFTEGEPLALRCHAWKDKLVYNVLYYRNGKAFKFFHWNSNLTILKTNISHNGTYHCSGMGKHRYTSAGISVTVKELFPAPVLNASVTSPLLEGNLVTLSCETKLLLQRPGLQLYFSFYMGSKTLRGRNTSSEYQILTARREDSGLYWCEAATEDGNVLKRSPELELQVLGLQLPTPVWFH

Binder | relative binding activity [1] | relative KD (KD of IgG1 / KD of the variant) [2] [fold] | relative KD (KD of IgG1 / KD of the variant) [3] [fold] | relative KD (KD of IgG1 / KD of the variant) [4] [fold] | relative KD (KD of IgG1 / KD of the variant) [5] [fold] | Kd [6] [µM] | other results
GpH7-B3 variant D265M/GpL16-k0 (antibody, human IgG1, copies: 2 + 2) heavy: not shown light: DIVMTQSPLSLPVTPGEPASISCQASESLVHSNRNTYLHWYLQKPGQSPQLLIYKVSNRFSGVPDRFSGSGSGTDFTLKISRVEAEDVGVYYCSQNTHVPPTFGQGTKVEIE | 2 % of GpH7-B3/GpL16-k0 | – | – | – | – | – | –
IgG1-v1 (antibody containing IL6R-G1d_v1 as H chain and IL6R-L as L chain) (antibody, IL6R-G1d with P238D (EU numbering); also called P238D) heavy: not shown light: DIQMTQSPSSLSASVGDRVTITCRASQDISSYLNWYQQKPGKAPKLLIYYTSRLHSGVPSRFSGSGSGTDFTFTISSLQPEDIATYYCQQGNTLPYTFGQGTKVEIK | – | 0.047 | 0.014 | 4.8 | 0.1 | – | –
IL6R-B3/IL6R-L (antibody, human IgG1, IL6R-G1d with K439E (EU numbering); also called parent polypeptide) heavy: not shown light: DIQMTQSPSSLSASVGDRVTITCRASQDISSYLNWYQQKPGKAPKLLIYYTSRLHSGVPSRFSGSGSGTDFTFTISSLQPEDIATYYCQQGNTLPYTFGQGTKVEIK | – | – | – | – | – | 11 | –

Now from value to binder, other results behind:

relative binding activity [1] | relative KD (KD of IgG1 / KD of the variant) [2] [fold] | relative KD (KD of IgG1 / KD of the variant) [3] [fold] | relative KD (KD of IgG1 / KD of the variant) [4] [fold] | relative KD (KD of IgG1 / KD of the variant) [5] [fold] | Kd [6] [µM] | Binder | other results
1 % of GpH7-B3/GpL16-k0 | – | – | – | – | – | GpH7-B3 variant G237R/GpL16-k0 (antibody, human IgG1, copies: 2 + 2) heavy: not shown light: DIVMTQSPLSLPVTPGEPASISCQASESLVHSNRNTYLHWYLQKPGQSPQLLIYKVSNRFSGVPDRFSGSGSGTDFTLKISRVEAEDVGVYYCSQNTHVPPTFGQGTKVEIE | –
– | 1.8 | 0.51 | 408 | 522 | – | IgG1-v3 (antibody containing IL6R-G1d_v3 as H chain and IL6R-L as L chain) (antibody, IL6R-G1d with S267E/L328F (EU numbering); also called S267E/L328F) heavy: not shown light: DIQMTQSPSSLSASVGDRVTITCRASQDISSYLNWYQQKPGKAPKLLIYYTSRLHSGVPSRFSGSGSGTDFTFTISSLQPEDIATYYCQQGNTLPYTFGQGTKVEIK | –
– | – | – | – | – | 10 | IL6R-G1d/IL6R-L (antibody, human IgG1, Anti-human IL-6 receptor IgG1, G1d constant region; also called IgG1) heavy: not shown light: DIQMTQSPSSLSASVGDRVTITCRASQDISSYLNWYQQKPGKAPKLLIYYTSRLHSGVPSRFSGSGSGTDFTFTISSLQPEDIATYYCQQGNTLPYTFGQGTKVEIK | Kd [7]: 26 µM
